3 molecules from paper PMC8307404, “Crystal Structure-Guided Design of Bisubstrate Inhibitors and Photoluminescent Probes for Protein Kinases of the PIM Family” (Molecules, 2021) can be followed below.

Series [1] has as its system U2OS cells. In words: Cellular uptake of fluorescent probes, live-cell microscopy. The series is classed as cell-based, human. The conditions noted are these: 1–5 μM, 10–60 min. The method, then: For studies of the general internalization properties of ARCs, the cells were seeded at the density of 12,000–25,000 cells per well onto an Ibidi μ-plate (96-well; Ibidi GmbH, Planegg, Germany). After 24 h incubation in growth medium, the cells were treated for 10 min, 30 min, or 1 h with dilutions of compounds 6, 7, 8, or ARC-2090 (5 μM, 2.5 μM, or 1 μM final concentration) in the phenol red-free DMEM/Ham’s F12 medium supplemented with 2% ccFBS and 2 mM glutamine. Next, cells were washed twice with PBS, and imaging medium (MEMO + Supplement A 1:100) was applied subsequently. Cells were imaged with Cytation 5 wide-field microscope (BioTek; Winooski, VT, USA) using 20× air objective and the following settings: for Cy5, 623 nm LED (intensity: 2) and Cy5 filter cube (685 nm) with 104 ms integration time and detector gain value of 2; for TAMRA, 523 nm LED (intensity: 7) and RFP filter cube (593 nm) with 252 ms integration time and detector gain value of 16; for bright-field, white LED with intensity 6, 186 ms integration time and detector gain value of 15. Four independent experiments were performed.

The subject of series [2] is PIM family. Briefly: Kinase profiling (radiometric filter-binding), PIM family. The series is classed as biochemical, human. The conditions noted are these: 1 µM compound. The method, then:
(§1) Kinase selectivity profiling was performed using the commercial service provided by the MRC PPU International Centre for Kinase Profiling (Dundee, UK) using a radiometric filter-binding assay. Kinases used for analysis were of human origin. The ATP concentration applied for inhibition measurements was at or below the ATP KM value of the particular PK. ARC-3125 and ARC-3126 were screened against 139 PKs, whereas compounds 1, 2, and 8 were screened against 140 PKs. The final total concentration of inhibitors in the selectivity panel was 1 µM. Residual activities were expressed as the percentage of retained activity compared to the control without inhibitor.

Series [3] relates to panel of 140 PKs. In words: Kinase selectivity profiling, panel metrics. The series is classed as biochemical, human. The conditions noted are these: 1 µM compound; kinases other than PIM family. The method, then: as §1
From the residual activities, values of the Gini coefficient and hit rate were calculated for each individual compound. The Gini coefficient is a single-value metric whose value for a specific inhibitor depends on the number and origin of the PKs in the panel, but also on concentration of the tested compound [70]. Hit rate is the number of kinases inhibited by over 50%.

Consider `CN(C)c1ccc2c(c1)Oc1cc(N(C)C)ccc1C21OC(=O)c2cc(C(=O)NCCCC[C@@H](NC(=O)[C@@H](CCCNC(=N)N)NC(=O)CNC(=O)[C@@H](CCCNC(=N)N)NC(=O)[C@@H](CCCNC(=N)N)NC(=O)CCCCc3cn(Cc4nc5c(sc6ccc(Br)cc65)c(=O)[nH]4)nn3)C(N)=O)ccc21` [Compound 8, BBTP-Tap-(D-Arg)2-Gly-D-Arg-[D-Lys(5-TAMRA)]-NH2], for which, in series [1], the “ability to cross the plasma membrane / internalization” value was “much lower internalization efficiency”.
Regarding `N=C(N)NCCC[C@@H](NC(=O)CNC(=O)[C@@H](CCCNC(=N)N)NC(=O)[C@@H](CCCNC(=N)N)NC(=O)CCCCCCCNCc1nc2c(sc3ccc(Br)cc32)c(=O)[nH]1)C(=O)N[C@H](CCCCN)C(N)=O` [Compound 2, BBTP-Aoc-(D-Arg)2-Gly-D-Arg-D-Lys-NH2], the “residual activity, PIM family, all isoforms” value in series [2] was 4–7%.
As for `N=C(N)NCCC[C@@H](NC(=O)CNC(=O)[C@@H](CCCNC(=N)N)NC(=O)[C@@H](CCCNC(=N)N)NC(=O)CCCCCCCNCc1nc2c(sc3cc(Br)cnc32)c(=O)[nH]1)C(=O)N[C@H](CCCCN)C(N)=O` [Compound 1, BPTP-Aoc-(D-Arg)2-Gly-D-Arg-D-Lys-NH2], the “residual activity of other basophilic kinases in the panel” value in series [3] was “above 81%”.
